Results as given in article PMC10516637, “FANCD2 and RAD51 recombinase directly inhibit DNA2 nuclease at stalled replication forks and FANCD2 acts as a novel RAD51 mediator in strand exchange to promote genome stability” (Nucleic Acids Research, 2023).

Biological target: T1, His-tagged human FANCD2 purified from E. coli (human, UniProt Q9BXW9 1-1451)
T1 construct: human FANCD2; non-ubiquitinylated single band on a gel; also called FANCD2-His; hFANCD2; source: E. coli BL21(DE3) CodonPlus, purified (Ni-NTA, Q Sepharose, Superdex 200)
T1 sequence (Q9BXW9 whole entry): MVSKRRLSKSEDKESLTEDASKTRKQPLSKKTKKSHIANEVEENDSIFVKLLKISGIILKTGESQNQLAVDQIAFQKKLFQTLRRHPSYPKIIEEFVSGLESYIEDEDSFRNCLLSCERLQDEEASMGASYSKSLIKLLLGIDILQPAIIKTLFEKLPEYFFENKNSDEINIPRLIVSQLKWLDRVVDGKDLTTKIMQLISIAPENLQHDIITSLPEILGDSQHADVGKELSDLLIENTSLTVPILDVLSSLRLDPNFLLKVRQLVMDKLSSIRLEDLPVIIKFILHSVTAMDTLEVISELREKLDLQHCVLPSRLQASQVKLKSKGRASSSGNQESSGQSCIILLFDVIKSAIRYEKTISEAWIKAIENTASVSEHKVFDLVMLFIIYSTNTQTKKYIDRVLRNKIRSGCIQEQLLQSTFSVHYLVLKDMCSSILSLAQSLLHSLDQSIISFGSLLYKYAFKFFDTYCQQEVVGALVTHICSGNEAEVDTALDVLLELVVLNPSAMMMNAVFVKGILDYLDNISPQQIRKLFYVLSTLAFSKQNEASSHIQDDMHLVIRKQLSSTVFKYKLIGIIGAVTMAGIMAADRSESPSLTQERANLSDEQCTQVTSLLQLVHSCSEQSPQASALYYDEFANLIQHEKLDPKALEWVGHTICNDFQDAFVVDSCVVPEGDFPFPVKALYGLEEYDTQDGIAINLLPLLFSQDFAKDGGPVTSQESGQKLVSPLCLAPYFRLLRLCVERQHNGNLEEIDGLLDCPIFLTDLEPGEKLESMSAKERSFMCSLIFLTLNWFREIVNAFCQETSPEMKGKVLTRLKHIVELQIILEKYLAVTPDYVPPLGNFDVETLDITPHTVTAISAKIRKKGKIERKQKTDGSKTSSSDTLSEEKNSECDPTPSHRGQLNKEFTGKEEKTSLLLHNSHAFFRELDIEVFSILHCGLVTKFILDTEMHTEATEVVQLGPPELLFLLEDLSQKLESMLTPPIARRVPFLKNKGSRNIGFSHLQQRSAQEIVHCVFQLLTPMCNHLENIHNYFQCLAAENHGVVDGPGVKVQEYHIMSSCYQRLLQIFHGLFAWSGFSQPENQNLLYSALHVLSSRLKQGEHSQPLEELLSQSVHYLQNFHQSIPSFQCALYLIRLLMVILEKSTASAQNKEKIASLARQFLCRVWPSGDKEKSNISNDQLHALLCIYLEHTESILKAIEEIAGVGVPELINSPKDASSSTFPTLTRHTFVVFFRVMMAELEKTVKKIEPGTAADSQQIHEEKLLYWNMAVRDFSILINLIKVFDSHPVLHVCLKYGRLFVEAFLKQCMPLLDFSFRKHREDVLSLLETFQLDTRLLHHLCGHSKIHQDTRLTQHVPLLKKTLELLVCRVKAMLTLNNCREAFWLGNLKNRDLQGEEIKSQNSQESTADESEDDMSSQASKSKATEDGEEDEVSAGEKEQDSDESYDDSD
Experiment: pull-down; FLAG-DNA2 purified on M2 FLAG beads, incubated with purified FANCD2 (1 ug/ml) at 4 C for 1 h; washed with PBS 5 times; western blot; empty M2 beads as control
Conditions: both partners purified

binding result: binds
B1: FLAG-tagged human DNA2 from 293T cells (enzyme, UniProt P51530 1-1060, looked up)
chain: MEQLNELELLMEKSFWEEAELPAELFQKKVVASFPRTVLSTGMDNRYLVLAVNTVQNKEGNCEKRLVITASQSLENKELCILRNDWCSVPVEPGDIIHLEGDCTSDTWIIDKDFGYLILYPDMLISGTSIASSIRCMRRAVLSETFRSSDPATRQMLIGTVLHEVFQKAINNSFAPEKLQELAFQTIQEIRHLKEMYRLNLSQDEIKQEVEDYLPSFCKWAGDFMHKNTSTDFPQMQLSLPSDNSKDNSTCNIEVVKPMDIEESIWSPRFGLKGKIDVTVGVKIHRGYKTKYKIMPLELKTGKESNSIEHRSQVVLYTLLSQERRADPEAGLLLYLKTGQMYPVPANHLDKRELLKLRNQMAFSLFHRISKSATRQKTQLASLPQIIEEEKTCKYCSQIGNCALYSRAVEQQMDCSSVPIVMLPKIEEETQHLKQTHLEYFSLWCLMLTLESQSKDNKKNHQNIWLMPASEMEKSGSCIGNLIRMEHVKIVCDGQYLHNFQCKHGAIPVTNLMAGDRVIVSGEERSLFALSRGYVKEINMTTVTCLLDRNLSVLPESTLFRLDQEEKNCDIDTPLGNLSKLMENTFVSKKLRDLIIDFREPQFISYLSSVLPHDAKDTVACILKGLNKPQRQAMKKVLLSKDYTLIVGMPGTGKTTTICTLVRILYACGFSVLLTSYTHSAVDNILLKLAKFKIGFLRLGQIQKVHPAIQQFTEQEICRSKSIKSLALLEELYNSQLIVATTCMGINHPIFSRKIFDFCIVDEASQISQPICLGPLFFSRRFVLVGDHQQLPPLVLNREARALGMSESLFKRLEQNKSAVVQLTVQYRMNSKIMSLSNKLTYEGKLECGSDKVANAVINLRHFKDVKLELEFYADYSDNPWLMGVFEPNNPVCFLNTDKVPAPEQVEKGGVSNVTEAKLIVFLTSIFVKAGCSPSDIGIIAPYRQQLKIINDLLARSIGMVEVNTVDKYQGRDKSIVLVSFVRSNKDGTVGELLKDWRRLNVAITRAKHKLILLGCVPSLNCYPPLEKLLNHLNSEKLIIDLPSREHESLCHILGDFQRE
notes: human DNA2 helicase/nuclease; also called FLAG-DNA2; hDNA2; source: 293T, over-expressed, purified (M2 FLAG beads, 3x FLAG peptide elution); HEK-293T, over-expressed, in lysate
